According to patent US20220177589A1 (OXFORD UNIVERSITY INNOVATION, published 2022):
Values belong to the binder of their own block, whether it stands above or below them.

Tests used:
Assay in all cases: cell-based or functional assay
[1] = biological target: full length human BTLA expressed in a Jurkat T cell line (human, UniProt Q7Z6A9 31-289)
[2] = biological target: T1, chimeric BTLA of humanised-BTLA mice (human extracellular region, murine transmembrane and signaling … (human; mouse, UniProt Q7TSA3 184-306, limits assumed)
T1 sequence (Q7TSA3 other isoform, or with tags, fused parts or gaps mutant limits assumed): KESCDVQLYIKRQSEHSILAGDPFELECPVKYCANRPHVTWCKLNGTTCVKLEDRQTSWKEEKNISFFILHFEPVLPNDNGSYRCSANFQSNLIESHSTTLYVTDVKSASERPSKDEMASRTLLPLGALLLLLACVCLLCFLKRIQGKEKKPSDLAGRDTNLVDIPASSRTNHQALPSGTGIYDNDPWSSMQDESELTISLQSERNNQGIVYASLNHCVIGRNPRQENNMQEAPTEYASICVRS

[3] = biological target: T2, full length cynomolgus BTLA expressed in a Jurkat T cell line (cynomolgus monkey, UniProt Q7Z6A9 31-289 (human entry))
T2 chain: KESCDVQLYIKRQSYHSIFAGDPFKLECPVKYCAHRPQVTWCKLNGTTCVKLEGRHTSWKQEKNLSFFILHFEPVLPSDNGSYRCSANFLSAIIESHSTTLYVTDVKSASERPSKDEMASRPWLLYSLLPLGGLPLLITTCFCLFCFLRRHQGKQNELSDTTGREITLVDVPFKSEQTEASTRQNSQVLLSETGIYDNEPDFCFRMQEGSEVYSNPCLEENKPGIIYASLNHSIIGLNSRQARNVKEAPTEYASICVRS

[4] = biological target: T1, chimeric BTLA of humanised-BTLA mice …; remark: listed apart in the source

B3: 11.5.1 (antibody, IgG1, V domains shown)
VH: EVQLQESGPSLVKPSQTLSLTCSVTGDSITSAYWNWIRKFPGNKLEYMGYISYSGSTYFNPSLKSRISITRNTSKNQYYLQLNSVTTEDTATYYCARSHYYGYYFDYWGHGTTLTVSS
VL: DIVLTQSPASLAVSLGQRATISCRASETIDSYGDSLMHWYQQKAGQPPKLLIYRASNLESGIPARFSGSGSRTDFTLTINPVEADDVATYYCQQTDEDPYTFGGGTKLEIK
AntiCD3/CD28 (CD4 T cell proliferation) repeat 1, % inhibition [2]: 21%
AntiCD3/CD28 (CD4 T cell proliferation) repeat 2, % inhibition [2]: 28%
AntiCD3/CD28 (CD69+ CD4 T cells) repeat 1, % inhibition [2]: 50%
AntiCD3/CD28 (CD69+ CD4 T cells) repeat 2, % inhibition [2]: 47%
MLR (CD4 T cell proliferation) repeat 1, % inhibition [2]: 23%
MLR (CD4 T cell proliferation) repeat 2, % inhibition [2]: 18%
IC50, inhibition of NFkB-GFP reporter in BTLA transfected Jurkat cells [3]: 0.14 nM
IC50, inhibition of CD4 T cell proliferation in a mixed lymphocyte reaction [4]: 0.016 nM

B4: 2.8.6 (antibody, IgG1, V domains shown)
VH: QVQLKESGPGLVAPSQSLSITCTVSGFSLTTYGVHWVRQSPGKGLEWLGVMWPGGRTSYNPAPMSRLSISKDNSKSQVFLKMNSLQTDDTAMYYCVRGDYEYDYYAMDYWGQGTSVTVSS
VL: QIVLSQSPAILSASPGEKVTMTCRASSSVSYMHWYQQKPGSSPKPWIYATSNLASGVPARFSGSGSGTSYSLTISRMEAEDAATYYCHQWSSNPYTFGGGTKLEIK
AntiCD3/CD28 (CD4 T cell proliferation) repeat 1, % inhibition [2]: 23%
AntiCD3/CD28 (CD4 T cell proliferation) repeat 2, % inhibition [2]: 35%
AntiCD3/CD28 (CD69+ CD4 T cells) repeat 1, % inhibition [2]: 58%
AntiCD3/CD28 (CD69+ CD4 T cells) repeat 2, % inhibition [2]: 67%
MLR (CD4 T cell proliferation) repeat 1, % inhibition [2]: 30%
MLR (CD4 T cell proliferation) repeat 2, % inhibition [2]: 36%
IC50, inhibition of NFkB-GFP reporter in BTLA transfected Jurkat cells [3]: 0.22 nM
IC50, inhibition of CD4 T cell proliferation in a mixed lymphocyte reaction [4]: 0.029 nM

B6: 6.2 (antibody, IgG1, V domains shown)
VH: EVKLVESGGGLVKPGGSLKLSCAASGFTLSSYGMSWVRQIPEKRLEWVASIRSDGNTYYPDSVKGRFIISRDNARNILYLQMSSLRSEDTAMYYCTRGGYYGSSPYYWGQGTTLTVSS
VL: DIVMSQSPSSLPVSVGEKISMTCKSSQSLLYSSNQKNYLAWYQQKPGQSPKLLIYWASTRDSGVPDRFIGSGSGTDFTLTINSVKAEDLAVYYCQQYYNYLTFGAGTKLELK
T cell reporter (NFkB signaling), % inhibition [1]: 26%
AntiCD3/CD28 (CD4 T cell proliferation) repeat 1, % inhibition [2]: 19%
AntiCD3/CD28 (CD4 T cell proliferation) repeat 2, % inhibition [2]: 21%
AntiCD3/CD28 (CD69+ CD4 T cells) repeat 1, % inhibition [2]: 53%
AntiCD3/CD28 (CD69+ CD4 T cells) repeat 2, % inhibition [2]: 61%
MLR (CD4 T cell proliferation) repeat 1, % inhibition [2]: 31%
MLR (CD4 T cell proliferation) repeat 2, % inhibition [2]: 35%

B7: 14D4 (antibody, IgG1, V domains shown)
VH: QVQLQQPGAELVKPRASVKLSCKASGYTFTSYWMHWVKQRPGQGLEWIGMIHPNNGIPNYNEKFKSKATLTVDKSSTTAYMQLSSLTSEDSAVYHCAREGYYGSEGYFDVWGTGTTVTVSS
VL: QIVLTQSPAIMSASPGEKVTMTCSASSSISYIHWYQQKPGTSPKRWIYDTSKLASGVPARFSGSGSGTSYSLTISSMEAEDAATYYCHQRSTYPYTFGGGTKLEIK
T cell reporter (NFkB signaling), % inhibition [1]: 16%
AntiCD3/CD28 (CD4 T cell proliferation) repeat 1, % inhibition [2]: 24%
AntiCD3/CD28 (CD4 T cell proliferation) repeat 2, % inhibition [2]: 29%
AntiCD3/CD28 (CD69+ CD4 T cells) repeat 1, % inhibition [2]: 43%
AntiCD3/CD28 (CD69+ CD4 T cells) repeat 2, % inhibition [2]: 52%
MLR (CD4 T cell proliferation) repeat 1, % inhibition [2]: 39%
MLR (CD4 T cell proliferation) repeat 2, % inhibition [2]: 26%

Continued, values first:

T cell reporter (NFkB signaling), % inhibition [1]: 24%
AntiCD3/CD28 (CD4 T cell proliferation) repeat 1, % inhibition [2]: 10%
AntiCD3/CD28 (CD4 T cell proliferation) repeat 2, % inhibition [2]: 8%
AntiCD3/CD28 (CD69+ CD4 T cells) repeat 1, % inhibition [2]: 50%
AntiCD3/CD28 (CD69+ CD4 T cells) repeat 2, % inhibition [2]: 53%
MLR (CD4 T cell proliferation) repeat 1, % inhibition [2]: 25%
MLR (CD4 T cell proliferation) repeat 2, % inhibition [2]: 34%
B1: 831 (antibody, V domains shown)
VH: DVQLQESGPDLVKPSQSLSVTCTVTGYSITSGYSWHWIRQFPGNKLEWMGYIHYSGSTNYNPSLKSRISITRDTSKNQFFLQLSSVTTEDTATYYCASGPHRYDGVWFAYWGQGTLVTVSS
VL: EIVLTQSPTTMAASPGEKITITCSASSSISSNYLHWYQQKPGFSPKLLIYRTSNLASGVPARFSGSGSGTSYSLTIGTMEAEDVATYYCQQGTNIPLTFGAGTKLEIK

T cell reporter (NFkB signaling), % inhibition [1]: 23%
AntiCD3/CD28 (CD4 T cell proliferation) repeat 1, % inhibition [2]: 10%
AntiCD3/CD28 (CD4 T cell proliferation) repeat 2, % inhibition [2]: -4%
AntiCD3/CD28 (CD69+ CD4 T cells) repeat 1, % inhibition [2]: 39%
AntiCD3/CD28 (CD69+ CD4 T cells) repeat 2, % inhibition [2]: 35%
MLR (CD4 T cell proliferation) repeat 1, % inhibition [2]: 8%
MLR (CD4 T cell proliferation) repeat 2, % inhibition [2]: 17%
B2: 21C7 (antibody, IgG1, V domains shown)
VH: QIQLQQSGPELVKPGASVKISCKASGYAFSSSWMNWVKKRPGKGLEWIGRIYPGDGDANYNGKFKGKATLTADKSSSTAYMQLSSLTSEDSAVYFCAGEGHYYGSGYRWYLDVWGTGTTVTVSS
VL: DIQMTQSPASLSVSVGETVTITCRASENIYSNLAWYQQKQGKSPQLLVYAATNLADGVPSRFSGSGSGTQYSLKINSLQSEDFGSYYCQHFRGAPFTFGSGTKLEIK

T cell reporter (NFkB signaling), % inhibition [1]: 22%
AntiCD3/CD28 (CD4 T cell proliferation) repeat 1, % inhibition [2]: 13%
AntiCD3/CD28 (CD4 T cell proliferation) repeat 2, % inhibition [2]: 23%
AntiCD3/CD28 (CD69+ CD4 T cells) repeat 1, % inhibition [2]: 52%
AntiCD3/CD28 (CD69+ CD4 T cells) repeat 2, % inhibition [2]: 44%
MLR (CD4 T cell proliferation) repeat 1, % inhibition [2]: 23%
MLR (CD4 T cell proliferation) repeat 2, % inhibition [2]: 31%
B5: 24H7 (antibody, IgG1, V domains shown)
VH: QVQLQQSGAELVRPGASVTLSCKASGYTFTDYEIHWVKQTLVHGLEWIGPIDPDTGNTAYNQNLKGKAILTADKSSSTAYMELRSLTSEDSAVYYCTRGGYDSDWGFAYWGQGTLVTVSA
VL: DIVMTQATPSVPVTPGESVSISCRSSKSLLHSNGNTFLFWFLQRPGQSPQLLIYRMSDLASGVPDRFSGSGSGTAFTLRISRVEAEDVGIYYCMQHLEYPFTFGSGTKLEIK

T cell reporter (NFkB signaling), % inhibition [1]: 29%
AntiCD3/CD28 (CD4 T cell proliferation) repeat 1, % inhibition [2]: 11%
AntiCD3/CD28 (CD4 T cell proliferation) repeat 2, % inhibition [2]: 23%
AntiCD3/CD28 (CD69+ CD4 T cells) repeat 1, % inhibition [2]: 51%
AntiCD3/CD28 (CD69+ CD4 T cells) repeat 2, % inhibition [2]: 60%
MLR (CD4 T cell proliferation) repeat 1, % inhibition [2]: 40%
MLR (CD4 T cell proliferation) repeat 2, % inhibition [2]: 26%
B8: 16H2 (antibody, IgG1, V domains shown)
VH: EVQLQQSGPELVQPGASVKISCKASGYTFTDYYMIWVKQSHGKSLEWIGNINPNNGGTTYNQKFKGKATLTVDKSSSTAYMGLPSLTSEDSAVYYCARGGLRPLYFDYWGQGTTLTVSS
VL: NIVMTQSPKSMSMSVGERVTLSCKASENVDTYVSWYQQKPEQSPKLLIYGASNRYTGVPDRFTGSGSATDFTLTISSVQAEDLADYHCGQSYSYPLTFGAGTKLELI
